The text below walks through data of publication PMC8609364, “A Selective Tether Recruits Activated Response Regulator CheB to Its Chemoreceptor Substrate” (mBio, 2021).

Like-named read-outs stand apart in the source and are kept apart here. Ends that are not written are not given here.

In experiment [1] the target is Tar4E L378C, E. coli aspartate chemoreceptor Tar, all-glutamyl form with carboxyl-terminal pentapeptide, homodimer in Nanodiscs (E. coli) (UniProt P07017). Nature of the experiment: BLI; BLItz; biotinylated Tar homodimers in Nanodiscs held on an avidin sensor tip, CheB-P* or CheB-P*-I in solution; 50 mM Tris-HCl pH 7.5, 10% glycerol, 5 mM MgCl2, 50 mM KCl, 2% BSA, no DTT; global fit, apparent rate constants, KD calculated from kon and koff.

The target of experiment [2] is Tar4EΔpp-6H L378C, E. coli Tar lacking the carboxyl-terminal pentapeptide, all-glutamyl form, homodimer in Nanodiscs (E. coli) (UniProt P07017). The description is as above.
The target of experiment [3] is Tar4Q L378C, E. coli aspartate chemoreceptor Tar, all-glutaminyl form with carboxyl-terminal pentapeptide, homodimer in Nanodiscs (E. coli) (UniProt P07017). The description is as above.
Experiment [4] deals with Tar4QΔpp-6H L378C, E. coli Tar lacking the carboxyl-terminal pentapeptide, all-glutaminyl form, homodimer in Nanodiscs (E. coli) (UniProt P07017). Described as above.
Experiment [5] concerns the target CheB. Nature of the experiment: Binding of CheB to NWETF pentapeptide tethered to the sensor surface via a linker (biolayer interferometry). On the set-up: species or system E. coli. The note with it: BLI, low-activity, unphosphorylated CheB, read-out: Equilibrium dissociation constant, pentapeptide alone. How it is done:
(§1) We measured binding of the low-activity, unphosphorylated form of CheB to the NWETF pentapeptide tethered to the sensor surface via a linker or in its native position at the carboxyl terminus of Tar4E or Tar4Q ([23]). Equilibrium dissociation constants were essentially the same for all conditions, 190 ± 85 μM for pentapeptide alone, and 230 ± 70 and 160 ± 30 for the pentapeptide on Tar4E or Tar4Q, respectively (Table 1).
Kinetics of CheB association and dissociation with Nanodisc-embedded Tar biotinylated at L378C were determined using biolayer interferometry ([22], [23]) as measured by a BLItz instrument (ForteBio, Menlo Park, CA, USA) and described in reference. Representative time course experiments are shown in Fig. S1 in the supplemental material. Measurements for CheB-P* and CheB-P*-I were in 50 mM Tris-HCl (pH 7.5), 10% (wt/vol) glycerol, 5 mM MgCl2, 50 mM KCl, and 2% (wt/vol) bovine serum albumin (BSA). Measurements for CheB and CheBc were in the same solution plus 2 mM dithiothreitol (DTT).
Using BLItz software, response curves were fit globally to a 1:1 binding model to yield apparent association rate constants (kon) and dissociation rate constants (koff). […]
A general note: BLI is a label-free optical method that tracks binding on a fibre tip over time.

Experiment [6] concerns the target unphosphorylated CheB. Particulars: isothermal titration calorimetry, free pentapeptide, ref [21], read-out: equilibrium dissociation constant; cited from earlier work. How it is done: as §1, with “1). Within the error of the measurements, these values corresponded to those previously determined for free pentapeptide binding to unphosphorylated CheB by isothermal titration c ...” for “1).”

Experiment [7] addresses unphosphorylated CheB. Particulars: equilibrium dialysis, free pentapeptide, ref [21], read-out: equilibrium dissociation constant; cited from earlier work. (In general: Equilibrium dialysis compares concentrations on both sides of a semipermeable membrane.)
Experiment [8] addresses CheB. The note with it: low-activity, unphosphorylated CheB from E. coli; ref [21]; read-out: dissociation constants; cited from earlier work. An excerpt:
(§2) CheB is a two-domain protein, with an amino-terminal response regulator domain attached by a linker sequence to a carboxyl-terminal catalytic domain ([17]) (Fig. 1B). Phosphorylation of the response regulator domain by the chemotaxis histidine kinase creates a high-activity form of the methylesterase ([6]), shifting interaction between the two domains to an “open” conformation that relieves occlusion of the active site by the regulatory amino-terminal domain ([18], [19]). The enzyme binds its substrate chemoreceptor side chains with the surfaces surrounding its active site ([20]). In contrast, ...

For experiment [9], the system named is CheB. Particulars: position 132; ref [11]; cited from earlier work.
The subject of experiment [10] is CheB binding to pentapeptide. Further details: method as in PMID 11435446. The note with it: ref [11]; cited from earlier work.
The target of experiment [11] is T1, methylesterase/deamidase CheB from E. coli, low-activity, unphosphorylated form (E. coli, UniProt P07330 1-349).
T1 construct: CheB methylesterase/deamidase of E. coli, unphosphorylated, from plasmid pCW/cheB; measured with 2 mM DTT in the buffer; also called low-activity CheB; unmodified CheB; source: E. coli K-12 RP3098 with pCW/cheB, purified
T1 sequence (looked up): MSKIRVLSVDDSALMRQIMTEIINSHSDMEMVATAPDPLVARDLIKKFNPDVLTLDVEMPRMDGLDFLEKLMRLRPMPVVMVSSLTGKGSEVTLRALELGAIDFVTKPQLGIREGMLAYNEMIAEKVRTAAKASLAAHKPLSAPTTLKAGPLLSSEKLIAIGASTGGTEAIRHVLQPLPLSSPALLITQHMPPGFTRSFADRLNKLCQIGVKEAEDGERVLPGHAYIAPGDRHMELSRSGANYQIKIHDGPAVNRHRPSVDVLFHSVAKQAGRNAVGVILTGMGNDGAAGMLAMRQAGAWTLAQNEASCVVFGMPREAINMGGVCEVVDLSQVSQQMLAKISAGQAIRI
In words: BLI; BLItz; NWETF pentapeptide tethered to the sensor surface via a linker, CheB in solution; apparent rate constants, KD calculated from kon and koff. The note with it: both partners purified.

The conditions of experiment [12]: low-activity, unphosphorylated CheB; ref [16]; read-out: dissociation constant; cited from earlier work.
Text: as §2

As to “CheB-P*, phosphorylation mimic of Salmonella CheB D56C/C207S/C309S modified with thiophosphate (from UniProt P04042 1-349) (enzyme)”, the Kd in [1] was 13 µM; in [2], 200 µM; in experiment [3], 13 µM; in experiment [4], 200 µM. Further, the dwell time (1/koff) in [1] and in [3] was 3 s in each case.
For NWETF [NWETF], the Kd in experiment [5] was 190 ± 85 µM; in experiment [6], 160 µM; in experiment [7], 130 µM; in [8], 130 to 160 µM. For the same molecule, the “protection of intact CheB from limited proteolysis” value in experiment [9] is listed as “protected intact CheB from limited proteolysis at position 132”.
With “peptide from CheB residues 130 through 140 (AAKASLAAHKP; UniProt P07330 130-140, looked up, fragment)”, in experiment [10], the “reduction of binding of intact enzyme to pentapeptide” value is “reduced binding of intact enzyme to pentapeptide”.
For “CheB-P*-I, enzymatically inactive phosphorylation mimic, Salmonella CheB D56C/S164A/C207S/C309S modified with thiophosphate (from UniProt P04042 1-349) (enzyme)”, the fold reduction of KA against CheB-P* in experiment [1] and in [3] was 2.5 fold throughout.

B1: NWETF pentapeptide tethered to the sensor surface via a linker (peptide)
peptide: NWETF
modifications: also: tethered to sensor surface via a linker (not described)
notes: carboxyl-terminal pentapeptide of the E. coli chemoreceptor Tar; also called pentapeptide alone
For the molecule B1, the Kd in [11] was 190 µM.

B2: CheB from Pseudomonas aeruginosa (protein, UniProt O87125 1-368, looked up)
Protein-glutamate …: MAVKVLVVDDSGFFRRRVSEILSADGQIQVVGTGTNGREAIEQALALRPDVITMDYEMPLMDGITAVRNIMQRCPTPVLMFSSLTHEGARVTLDALDAGAVDYLPKNFEDISRNPDKVRQLLCEKVLTIARSNRRSISLPPLPSATSSSHAPASSSSVGASARVGAGASPAPASTSAAPKRKAYRLVAIGTSTGGPVALQRVLTQLPANFPAPLVLIQHMPAAFTKAFAERLDKLCRINVKEAEDGDILRPGLALLAPGGKQMMVDGRGTVRILPGDERLNYKPCVDVTFGSAAKAYNDKVLAVVLTGMGADGREGARLLKQGGSQVWAQDEASCVIYGMPMAVVKANLADAVYGLDDIGRHLVEACQ
Turning to B2, in [12], the Kd was roughly 90 µM.
